Results taken from the Human Domainome abundance scans (Beltran et al. 2025).
± gives the uncertainty stated by the source.

B1: Peripheral plasma membrane protein CASK, residues 488 to 569; numbered along this chain, O14936 (parent)
chain: VRLVQFQKNTDEPMGITLKMNELNHCIVARIMHGGMIHRQGTLHVGDEIREINGISVANQTVEQLQKMLREMRGSITFKIVP

Variants of: B1
Test: abundance fitness (aPCA) (normalised: wild type 0, dead -1); higher = more abundant; growth selection in yeast, the domain comes from the species named
Settings: Homo sapiens

Variant	abundance fitness
H33R	-0.006 ± 0.024
H33D	-0.011 ± 0.044
H33C	-0.033 ± 0.039
H33E	0.066 ± 0.033
H33F	-0.102 ± 0.062
H33Q	0.045 ± 0.036
H33L	-0.119 ± 0.028
H33P	0.009 ± 0.033
H33K	0.01 ± 0.04
H33W	-0.16 ± 0.034
H33V	0.003 ± 0.028
H33I	-0.006 ± 0.052
H33S	-0.008 ± 0.029
H33G	-0.054 ± 0.025
H33Y	-0.107 ± 0.053
H33M	-0.026 ± 0.036
H33T	0.005 ± 0.035
H25F	-0.194 ± 0.05
H25C	-0.013 ± 0.031
H25Y	-0.102 ± 0.047
H25A	-0.016 ± 0.024
H25M	-0.019 ± 0.031
H25R	-0.016 ± 0.021
H25I	-0.073 ± 0.047

Variant	abundance fitness
H25G	-0.046 ± 0.021
H25L	-0.064 ± 0.025
H25P	-0.819 ± 0.06
H25E	0.019 ± 0.027
H25N	0.027 ± 0.036
H25T	-0.09 ± 0.029
H25D	-0.163 ± 0.037
H25W	-0.32 ± 0.031
H25Q	0.019 ± 0.03
E22R	0.001 ± 0.025
E22C	-0.089 ± 0.045
E22P	-0.03 ± 0.04
E22S	-0.022 ± 0.031
E22D	0.031 ± 0.036
E22N	-0.075 ± 0.071
E22T	-0.021 ± 0.038
E22H	-0.037 ± 0.05
E22V	-0.079 ± 0.027
E22Q	0.008 ± 0.039
E22K	-0.004 ± 0.042
E22Y	0.028 ± 0.066
E22G	0.022 ± 0.023
E22I	-0.185 ± 0.067
E22W	-0.138 ± 0.033

Variant	abundance fitness
E22L	-0.135 ± 0.032
E22M	-0.078 ± 0.041
E22F	-0.277 ± 0.074
I31N	-0.71 ± 0.14
I31L	-0.058 ± 0.032
I31F	-0.331 ± 0.13
I31P	-0.791 ± 0.082
I31Y	-0.579 ± 0.12
I31D	-0.61 ± 0.075
I31K	-0.93 ± 0.15
I31Q	-1.04 ± 0.13
I31A	-0.647 ± 0.059
I31R	-0.869 ± 0.052
I31G	-1 ± 0.069
I31S	-0.859 ± 0.075
I31V	-0.057 ± 0.03
I31H	-0.779 ± 0.27
I31W	-0.847 ± 0.082
I31E	-0.777 ± 0.078
V28C	-0.272 ± 0.036
V28I	0.03 ± 0.041
V28P	-1.08 ± 0.097
V28K	-1.16 ± 0.12
V28A	-0.479 ± 0.032

Variant	abundance fitness
V28E	-1.01 ± 0.068
V28L	-0.424 ± 0.03
V28G	-0.992 ± 0.045
V28D	-0.898 ± 0.096
V28W	-0.931 ± 0.06
V28Y	-0.779 ± 0.11
V28T	-0.651 ± 0.051
V28N	-1.01 ± 0.25
V28S	-0.867 ± 0.063
H38C	-0.129 ± 0.036
H38E	0.048 ± 0.027
H38R	-0.209 ± 0.023
H38A	-0.028 ± 0.024
H38D	-0.043 ± 0.035
H38N	-0.138 ± 0.055
H38S	-0.052 ± 0.028
H38G	-0.091 ± 0.02
H38Y	-0.076 ± 0.049
H38W	-0.029 ± 0.026
H38I	-0.295 ± 0.066
H38F	-0.057 ± 0.045
H38K	-0.138 ± 0.037
H38T	-0.313 ± 0.04
H38Q	0.024 ± 0.034

Variant	abundance fitness
H38L	-0.348 ± 0.03
H38P	-0.103 ± 0.034
M32E	0.04 ± 0.037
M32R	0.003 ± 0.028
M32W	-0.045 ± 0.045
M32A	0.058 ± 0.035
M32N	0.062 ± 0.078
M32Q	0.001 ± 0.045
M32P	-0.109 ± 0.051
M32F	0.086 ± 0.26
M32V	0.027 ± 0.034
M32K	0.042 ± 0.039
M32D	0.051 ± 0.055
M32L	-0.083 ± 0.038
M32T	0.015 ± 0.044
M32Y	-0.086 ± 0.072
M32I	0.175 ± 0.085
M32G	-0.093 ± 0.028
N21I	-0.201 ± 0.041
N21P	-0.33 ± 0.031
N21S	-0.045 ± 0.024
N21E	-0.136 ± 0.032
N21Q	-0.226 ± 0.034
N21L	-0.228 ± 0.025

Variant	abundance fitness
N21K	-0.186 ± 0.031
N21W	-0.6 ± 0.044
N21H	-0.25 ± 0.038
N21F	-0.415 ± 0.05
N21V	-0.145 ± 0.028
N21T	-0.041 ± 0.027
N21M	-0.258 ± 0.033
N21C	-0.201 ± 0.042
N21R	-0.268 ± 0.025
N21G	-0.186 ± 0.026
N21Y	-0.282 ± 0.041
I37L	-0.103 ± 0.025
I37N	-0.391 ± 0.059
I37M	-0.021 ± 0.03
I37S	-0.217 ± 0.028
I37R	-0.531 ± 0.026
I37T	-0.129 ± 0.029
I37G	-0.276 ± 0.023
I37Q	-0.43 ± 0.045
I37F	-0.092 ± 0.048
I37H	-0.294 ± 0.05
I37C	-0.024 ± 0.034
I37W	-0.333 ± 0.03
I37Y	-0.38 ± 0.056

Variant	abundance fitness
I37A	0.019 ± 0.025
I37P	-0.42 ± 0.044
I37E	-0.378 ± 0.032
I27P	-0.883 ± 0.067
I27Q	-0.106 ± 0.03
I27D	-1.05 ± 0.1
I27A	-0.166 ± 0.025
I27Y	0.007 ± 0.037
I27S	-0.17 ± 0.024
I27M	-0.052 ± 0.03
I27E	-0.05 ± 0.03
I27F	-0.08 ± 0.037
I27C	-0.16 ± 0.029
I27K	-0.175 ± 0.038
I27V	-0.045 ± 0.023
I27W	-0.187 ± 0.027
I27R	-0.227 ± 0.022
I27T	-0.021 ± 0.03
R30D	-0.012 ± 0.063
R30F	-0.083 ± 0.1
R30Q	-0.013 ± 0.045
R30H	0.037 ± 0.057
R30L	-0.283 ± 0.035
R30G	-0.005 ± 0.024

Variant	abundance fitness
R30W	-0.114 ± 0.034
R30V	-0.163 ± 0.032
R30P	-1.11 ± 0.23
R30K	0.069 ± 0.047
R30Y	0.015 ± 0.092
R30I	-0.372 ± 0.087
R30S	-0.007 ± 0.033
R30N	0.012 ± 0.063
R30C	-0.055 ± 0.062
R30E	0.027 ± 0.036
R30A	0.008 ± 0.034
R30M	-0.112 ± 0.046
Q40N	-0.007 ± 0.041
Q40M	-0.055 ± 0.026
Q40I	-0.05 ± 0.038
Q40E	0.018 ± 0.024
Q40H	-0.096 ± 0.041
Q40P	-0.552 ± 0.04
Q40L	-0.06 ± 0.022
Q40G	-0.097 ± 0.023
Q40A	-0.016 ± 0.02
Q40C	-0.072 ± 0.029
Q40S	-0.043 ± 0.023
Q40F	-0.103 ± 0.041

Variant	abundance fitness
G35I	-0.843 ± 0.17
G35E	-0.187 ± 0.029
G35A	-0.098 ± 0.026
G35F	-0.243 ± 0.057
G35L	-0.268 ± 0.027
G35T	-0.013 ± 0.033
G35D	-0.236 ± 0.043
G35S	0.027 ± 0.026
G35Y	-0.134 ± 0.054
G35N	-0.28 ± 0.068
G35R	-0.278 ± 0.024
G35P	-0.549 ± 0.048
G35W	-0.422 ± 0.035
G35C	-0.066 ± 0.035
G35V	-0.485 ± 0.031
G35M	-0.128 ± 0.038
G35H	-0.068 ± 0.057
L23W	0.007 ± 0.026
L23V	0.012 ± 0.025
L23H	0.028 ± 0.049
L23S	0.028 ± 0.029
L23G	0.033 ± 0.021
L23A	0.039 ± 0.028
L23P	-0.073 ± 0.036

Variant	abundance fitness
L23E	0.086 ± 0.028
L23N	-0.038 ± 0.051
L23C	0.013 ± 0.035
L23K	0.005 ± 0.035
L23I	0.054 ± 0.057
L23Q	0.043 ± 0.035
L23T	0.044 ± 0.037
L23R	0.046 ± 0.022
L23F	-0.04 ± 0.049
L23Y	0.128 ± 0.043
A29E	0.003 ± 0.038
A29P	-0.936 ± 0.15
A29Q	-0.008 ± 0.044
A29R	-0.097 ± 0.03
A29N	-0.201 ± 0.087
A29F	-0.362 ± 0.13
A29V	-0.11 ± 0.034
A29Y	-0.198 ± 0.11
A29W	-0.068 ± 0.037
A29G	-0.08 ± 0.027
A29S	-0.051 ± 0.038
A29M	-0.057 ± 0.047
A29C	-0.279 ± 0.064
A29T	-0.069 ± 0.054

Variant	abundance fitness
A29H	-0.013 ± 0.078
A29L	-0.188 ± 0.041
A29K	-0.059 ± 0.043
A29I	-0.115 ± 0.066
C26P	0.015 ± 0.029
C26L	-0.083 ± 0.026
C26A	-0.067 ± 0.025
C26W	-0.031 ± 0.026
C26S	-0.732 ± 0.043
C26I	0.032 ± 0.05
C26K	-0.202 ± 0.04
C26E	-0.909 ± 0.059
C26V	0.015 ± 0.023
C26R	-0.642 ± 0.029
C26Q	-0.708 ± 0.059
C26M	-0.076 ± 0.033
C26Y	-0.07 ± 0.048
C26G	-0.736 ± 0.029
C26D	-0.868 ± 0.091
N24C	-0.159 ± 0.033
N24D	-0.024 ± 0.033
N24Y	-0.226 ± 0.043
N24T	-0.265 ± 0.03
N24W	-0.467 ± 0.032

Variant	abundance fitness
N24A	-0.14 ± 0.023
N24M	-0.204 ± 0.03
N24F	-0.252 ± 0.045
N24E	-0.065 ± 0.026
N24V	-0.7 ± 0.034
N24L	-0.427 ± 0.026
N24I	-0.89 ± 0.11
N24H	-0.006 ± 0.037
N24R	-0.064 ± 0.02
N24S	-0.045 ± 0.023
N24P	-0.922 ± 0.066
N24K	-0.032 ± 0.029
N24G	0.023 ± 0.019
G34Q	-0.151 ± 0.057
G34I	-0.478 ± 0.1
G34K	-0.177 ± 0.064
G34C	-0.252 ± 0.064
G34A	-0.247 ± 0.041
G34L	-0.261 ± 0.042
G34R	-0.194 ± 0.035
G34D	-0.032 ± 0.051
G34F	-0.385 ± 0.096
G34N	-0.016 ± 0.1
G34P	-0.373 ± 0.06

Variant	abundance fitness
G34M	-0.259 ± 0.057
G34T	-0.126 ± 0.054
G34V	-0.447 ± 0.042
G34Y	-0.489 ± 0.14
G34H	-0.052 ± 0.085
R39V	-0.197 ± 0.022
R39Q	-0.024 ± 0.031
R39Y	-0.35 ± 0.048
R39N	0.04 ± 0.037
R39C	-0.156 ± 0.055
R39P	-0.469 ± 0.04
R39D	-0.096 ± 0.034
R39F	-0.34 ± 0.051
R39A	-0.035 ± 0.022
R39I	-0.297 ± 0.04
R39E	-0.052 ± 0.026
R39L	-0.138 ± 0.026
R39H	-0.118 ± 0.043
R39M	-0.135 ± 0.033
R39S	-0.047 ± 0.026
R39T	-0.07 ± 0.03
R39G	-0.136 ± 0.019
M36C	-0.07 ± 0.058
M36G	-0.05 ± 0.029

Variant	abundance fitness
M36N	-0.07 ± 0.08
M36R	-0.092 ± 0.028
M36F	0.119 ± 0.082
M36A	0.039 ± 0.039
M36V	0 ± 0.036
M36L	0.025 ± 0.037
M36E	0.009 ± 0.042
M36W	0.068 ± 0.035
M36Q	-0.014 ± 0.044
M36H	0.075 ± 0.061
M36I	0.029 ± 0.061
M36S	0.049 ± 0.038
M36D	-0.044 ± 0.062
M36T	0.006 ± 0.05
M36Y	0.066 ± 0.072
M36P	0.095 ± 0.048
M20R	-0.034 ± 0.024
M20T	-0.088 ± 0.04
M20W	-0.044 ± 0.032
M20V	-0.046 ± 0.03
M20S	-0.154 ± 0.033
M20Y	-0.01 ± 0.066
